Results reported in patent publication US11098124B2, “CD31 shed as a molecular target for imaging of inflammation” (INSTITUT NATIONAL DE LA SANTE ET DE LA RECHERCHE MEDICALE …, priority 2016, dated 2021).
“Also recorded” adds a separate entry of the source. Where a SMILES comes first, the peptide text is derived from it. [ ]: non-standard residue; d: D form. The star is where a group is joined. ξ: configuration not given here. HYNIC = NNc1ccc(C(=O)*)cn1; PEG3 = NCCOCCOCCOCCC(=O)O; ξK = NCCCCC(N)C(=O)O

Key:
[1] = tested on: abdominal aorta aneurysm (AAA) rat model of vascular inflammation; experiment: SPECT/CT imaging in abdominal aorta aneurysm (AAA) model; assay type: in vivo; settings: for Pattern of biodistribution / blood clearance route (in words): AAA rat, 74 MBq i.v., SPECT/CT
Source text: Rat model of vascular inflammation that has been set up at the laboratory: the experimental abdominal aorta aneurysm (AAA) induced by local infusion of elastase and followed by intravenous injection of a periodontal bacterium present in human AAA (Porphyromonas gingivalis) and known to induce AAA inflammation (Delbosc et al., 2011, PLoS ONE 6(4): e18679. doi:10.1371/journal.pone.0018679).
Immediately after intravenous injection via the penis vein of 74 MBq of radiolabelled HYNIC-P8RI (obtained using Tricine/EDDA), sequential whole-body acquisitions (every 10 minutes for the first hour) were performed with a hybrid SPECT/CT camera (NanoSPECT/CT, Bioscan Inc.) dedicated to small animals. 10. […] Results 1. Radiolabeling 6-Hydrazinopyridine-3-carboxylic acid (HYNIC) was coupled to the N-terminal amino-acid of the P8RI peptide via a 3(PEG) spacer to obtain HYNIC-P8RI. HYNIC-P8RI was then labeled at high specific activities (>71 GBq/μmol) using tricine, EDDA or Tricine/EDDA as coligands. The tricine/EDDA exchange labeling strategy was chosen because of high labeling yield and resulting in a single major specie as analyzed by HPLC (see FIG. 1).

[2] = 37° C.
Protocol: (§1) A Dionex Ultimate 3000 system coupled to a Berthold radiometric detector was used for RP-HPLC analysis. A ACE 3 C18, 3μ, 100 Å, 150×4.6 mm column, at a flow rate of 1 mL/min and with UV detection at 220 nm, was employed with the following mobile phases, A: 0.1% TFA/water), B Acetonitrile (ACN). Gradient was: 0-2 min 23% B, 2-20 min 23-50% B, 20-23 min 50-100% B, 23-25 min 100-23% B, 25-28 min 23% B. 2.2 Thin Layer Chromatography TLC was performed using a radiochromatogaph (MiniGita, Raytest, Germany). Stationary phase was silica gel (ITLC-SG, Agilent technologies, USA) and different mobile phases were employed. MEK was used to determine the amount of free ^99mTcO4^− (Rf=1), Anticoagulant Citrate Dextrose Solution (ACD-A, Baxter International, USA) to determine non-peptide-bound ^99mTc-coligands and ^99mTcO4^− (Rf=1), 60% ACN for ^99mTc-colloid (Rf=0). […] In Vitro Stability Study Stability of ^99mTc complexes was assessed in fresh human plasma at 37° C. after 0 min, 30 min, 1 hour, 2 hours and 4 hours of incubation at a concentration of 100 μmol/mL. […] Supernatants were collected and filtered (Millex-GV 0.22 μm PVDF, Merck Millipore, Germany) then assessed by radio-HPLC. […] After one hour, rat was sacrificed and urine was directly collected from the bladder using a syringe and analyzed by radio-HPLC after a 0.22 μm filtration (Millex-GV 0.22 μm PVDF, Merck Millipore, Germany). […]

plasma proteins = experiment: in vitro; settings: human, fresh human plasma
Protocol: as §1

[3] = male wistar rat, 74 MBq, urine from bladder 1 hour after injection; listed as [99mTc]EDDA/HYNIC-P8RI
Protocol: as §1

Question: What does the source list for CC(C)C[C@@H](NC(=O)[C@@H](C)NC(=O)[C@H]1CCCN1C(=O)[C@@H](Cc1c[nH]c2ccccc12)NC(=O)C(CCCCN)NC(=O)CCOCCOCCOCCNC(=O)c1ccc(NN)nc1)C(=O)N[C@H](Cc1ccccc1)C(=O)N[C@@H](C(=O)N[C@H](CCCNC(=N)N)C(=O)O)C(C)C (stereo partly drawn) [99mTc-HYNIC-P8RI, metal not drawn] ({HYNIC-PEG3}-[ξK][dW][dP][dA][dL][dF][dV][dR]-OH)?
Answer: Pattern of biodistribution / blood clearance route (in words) [1]: almost exclusive renal uptake and excretion; Pattern of biodistribution / blood clearance route (in words) ([1]; listed as [99mTc]EDDA/HYNIC-P8RI): tracer elimination via kidneys; also recorded: almost exclusively renal; Blood clearance rate (in words) ([1]; in vivo, rat): rapid blood clearance; Time of peak activity in kidneys and bladder after injection ([1]; rat, i.v. injection): 1 h; RCP (radiochemical purity) after incubation in human plasma ([2]; 4 h of incubation, tricine/EDDA coligands): > 89%; In vitro stability in human plasma (in words) ([2]; up to 4 h, radio-HPLC, listed as [99mTc]EDDA/HYNIC-P8RI): no significant release of degraded radiolabelled peptide; fraction unbound at 4 h (plasma proteins): > 0.95; In vivo stability: species excreted in rat urine by radio-HPLC (in words) [3]: unaltered form of the peptide
